# B1: CK2β (in vitro pull-down) (natural protein)
# chain: not shown
# Legend:
# GST–prelamin A = target: T1, GST–prelamin A (human, UniProt P02545 1-664); test: pull-down
# T1 sequence (looked up): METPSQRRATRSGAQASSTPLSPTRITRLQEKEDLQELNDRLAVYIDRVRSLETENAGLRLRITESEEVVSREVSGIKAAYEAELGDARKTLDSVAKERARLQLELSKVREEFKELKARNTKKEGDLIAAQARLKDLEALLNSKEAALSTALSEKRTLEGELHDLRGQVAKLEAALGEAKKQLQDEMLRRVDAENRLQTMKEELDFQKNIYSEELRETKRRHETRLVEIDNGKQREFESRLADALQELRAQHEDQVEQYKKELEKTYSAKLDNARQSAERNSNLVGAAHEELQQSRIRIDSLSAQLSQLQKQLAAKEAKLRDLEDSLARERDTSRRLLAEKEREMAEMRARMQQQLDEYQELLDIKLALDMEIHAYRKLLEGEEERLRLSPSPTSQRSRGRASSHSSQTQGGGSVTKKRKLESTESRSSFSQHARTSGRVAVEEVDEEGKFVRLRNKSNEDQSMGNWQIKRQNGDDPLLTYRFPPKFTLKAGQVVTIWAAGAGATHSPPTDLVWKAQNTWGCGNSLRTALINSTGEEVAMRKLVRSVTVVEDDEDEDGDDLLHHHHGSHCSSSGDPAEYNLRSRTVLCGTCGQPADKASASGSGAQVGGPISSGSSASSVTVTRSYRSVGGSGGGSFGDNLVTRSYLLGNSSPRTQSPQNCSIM
# GST–lamin A = target: T2, GST–lamin A (human, UniProt P02545 1-646); test: pull-down
# T2 sequence (looked up): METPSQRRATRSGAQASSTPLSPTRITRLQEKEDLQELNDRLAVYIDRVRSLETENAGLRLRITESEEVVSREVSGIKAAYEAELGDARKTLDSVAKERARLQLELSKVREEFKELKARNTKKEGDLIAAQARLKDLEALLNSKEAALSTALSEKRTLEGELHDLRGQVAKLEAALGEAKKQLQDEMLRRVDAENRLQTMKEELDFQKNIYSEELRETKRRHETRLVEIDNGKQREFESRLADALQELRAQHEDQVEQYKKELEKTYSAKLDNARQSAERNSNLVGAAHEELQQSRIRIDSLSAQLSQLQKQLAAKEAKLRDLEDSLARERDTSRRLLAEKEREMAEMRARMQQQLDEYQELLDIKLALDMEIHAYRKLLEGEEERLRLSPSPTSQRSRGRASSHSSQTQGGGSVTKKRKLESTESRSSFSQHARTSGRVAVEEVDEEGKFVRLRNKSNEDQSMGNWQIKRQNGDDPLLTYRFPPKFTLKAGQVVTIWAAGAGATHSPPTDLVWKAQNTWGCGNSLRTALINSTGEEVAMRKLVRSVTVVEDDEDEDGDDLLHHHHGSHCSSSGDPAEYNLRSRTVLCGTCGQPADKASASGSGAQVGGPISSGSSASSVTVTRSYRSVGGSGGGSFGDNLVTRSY
binder,measurement,setting,value
B1,binding result,GST–prelamin A,binds
same,binding result,GST–lamin A,binds
